Test results from patent publication US7183387 (Genentech, dated 2007).

T1: human FcγRIIA-R131 α subunit extracellular domain-6His-GST fusion (human, UniProt P12318 34-217)
T1 construct: also called FcγRIIA-Arg131; not shown: glutathione S-transferase (GST)
T1 sequence: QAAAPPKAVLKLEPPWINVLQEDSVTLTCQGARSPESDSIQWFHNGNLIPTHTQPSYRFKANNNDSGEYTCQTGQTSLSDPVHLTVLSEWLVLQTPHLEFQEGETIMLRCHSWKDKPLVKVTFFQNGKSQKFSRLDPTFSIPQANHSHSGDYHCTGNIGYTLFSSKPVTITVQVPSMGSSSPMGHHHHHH

T2: human FcγRIIB α subunit extracellular domain-6His-GST fusion (human, UniProt P31994 43-217)
T2 construct: not shown: glutathione S-transferase (GST)
T2 sequence: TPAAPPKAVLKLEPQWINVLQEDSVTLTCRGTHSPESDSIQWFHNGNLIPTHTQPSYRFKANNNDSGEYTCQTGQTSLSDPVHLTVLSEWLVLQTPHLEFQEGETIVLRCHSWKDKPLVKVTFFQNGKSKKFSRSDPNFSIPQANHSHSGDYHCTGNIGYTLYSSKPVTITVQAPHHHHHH

B1: E27 IgG1 variant K334(353)G (antibody)
heavy: not shown
light: DIQLTQSPSSLSASVGDRVTITCRASKPVDGEGDSYLNWYQQKPGKAPKLLIYAASYLESGVPSRFSGSGSGTDFTLTISSLQPEDFATYYCQQSHEDPYTFGQGTKVEIKRTVAAPSVFIFPPSDEQLKSGTASVVCLLNNFYPREAKVQWKVDNALQSGNSQESVTEQDSKDSTYSLSSTLTLSKADYEKHKVYACEVTHQGLSSPVTKSFNRGEC
notes: also called IG2 179
B2: E27 IgG1 variant E272(285)N (antibody)
heavy: not shown
light: B1 light
notes: also called IG2 224
B3: E27 IgG1 variant D265(278)E (antibody)
heavy: not shown
light: B1 light
notes: also called IG2 158
B4: E27 IgG1 variant E283(300)Q (antibody)
heavy: not shown
light: B1 light
notes: also called IG2 226
B5: E27 IgG1 variant D265(278)N (antibody)
heavy: not shown
light: B1 light
B6: E27 IgG1 variant D270(283)N (antibody)
heavy: not shown
light: B1 light
notes: also called IG2 92
B7: E27 IgG1 variant E283(300)N (antibody)
heavy: not shown
light: B1 light
notes: also called IG2 228
B8: E27 IgG1 variant E294(311)Q (antibody)
heavy: not shown
light: B1 light
notes: also called IG2 173
B9: E27 IgG1 variant E269(282)Q (antibody)
heavy: not shown
light: B1 light
notes: also called IG2 169
B10: E27 IgG1 variant D249(262)E (antibody)
heavy: not shown
light: B1 light
notes: also called IG2 222
B11: E27 IgG1 variant E293(310)K (antibody)
heavy: not shown
light: B1 light
B12: E27 IgG1 variant E283(300)D (antibody)
heavy: not shown
light: B1 light
B13: E27 IgG1 variant E293(310)Q (antibody)
heavy: not shown
light: B1 light
B14: E27 IgG1 variant E333(352)G (antibody)
heavy: not shown
light: B1 light
notes: also called IG2 178
B15: E27 IgG1 variant A330(349)K (antibody)
heavy: not shown
light: B1 light
notes: also called IG2 197
B16: E27 IgG1 variant S267(280)T (antibody)
heavy: not shown
light: B1 light
B17: E27 IgG1 variant E293(310)D (antibody)
heavy: not shown
light: B1 light
B18: E27 IgG1 variant A330(349)D (antibody)
heavy: not shown
light: B1 light
B19: E27 IgG1 variant D280(295)S (antibody)
heavy: not shown
light: B1 light
B20: E27 IgG1 variant E318(337)K (antibody)
heavy: not shown
light: B1 light
B21: E27 IgG1 variant E283(300)S (antibody)
heavy: not shown
light: B1 light
notes: also called IG2 227
B22: E27 IgG1 variant A327(346)G (antibody)
heavy: not shown
light: B1 light
B23: E27 IgG1 variant E333(352)R (antibody)
heavy: not shown
light: B1 light
B24: E27 IgG1 variant A327(346)S (antibody)
heavy: not shown
light: B1 light
B25: E27 IgG1 variant E272(285)Q (antibody)
heavy: not shown
light: B1 light
notes: also called IG2 223
B26: E27 IgG1 variant D270(283)E (antibody)
heavy: not shown
light: B1 light
notes: also called IG2 93
B27: E27 IgG1 variant E333(352)Q (antibody)
heavy: not shown
light: B1 light
B28: E27 IgG1 variant E294(311)D (antibody)
heavy: not shown
light: B1 light
notes: also called IG2 174
B29: E27 IgG1 variant D280(295)N (antibody)
heavy: not shown
light: B1 light
notes: also called IG2 79
B30: E27 IgG1 variant E269(282)D (antibody)
heavy: not shown
light: B1 light
B31: E27 IgG1 variant E333(352)N (antibody)
heavy: not shown
light: B1 light
B32: E27 IgG1 variant E333(352)D (antibody)
heavy: not shown
light: B1 light
B33: E27 IgG1 variant E333(352)S (antibody)
heavy: not shown
light: B1 light
notes: also called IG2 143
B34: E27 IgG1 variant E333(352)K (antibody)
heavy: not shown
light: B1 light

target: T1, human FcγRIIA-R131 α subunit …; experiment: ELISA, IgG:IgE hexamers on receptor-GST

Binder	ratio to native IgG1
B1	0.76
B2	0.43
B3	0.11
B4	1.12
B5	0.02
B6	0.03
B7	1.18
B8	1.01
B9	0.08
B10	0.97
B11	1.13
B12	1.14
B13	0.85
B14	0.87
B15	1.28
B16	0.42

Binder	ratio to native IgG1
B17	0.9
B18	0.18
B19	1.07
B20	1.03
B21	1.03
B22	0.92
B23	0.75
B24	0.23
B25	1.93
B26	0.08
B27	0.7
B28	0.37
B29	1.07
B30	0.89
B31	0.59

target: T2, human FcγRIIB α subunit extracellular …; experiment: ELISA, IgG:IgE hexamers on receptor-GST

Binder	ratio to native IgG1
B1	0.6
B2	0.23
B3	0.03
B4	1.24
B5	0.03
B6	0.05
B7	1.28
B8	0.95
B9	0.16
B10	0.99
B11	1.31
B12	1.23
B13	0.77
B14	0.76
B15	1.25
B16	0.45

Binder	ratio to native IgG1
B17	0.88
B18	0.08
B19	1.04
B20	1.08
B21	1.07
B22	0.83
B23	0.66
B24	0.22
B25	1.81
B26	0.06
B27	0.64
B28	0.26
B29	1.22
B30	0.73
B31	0.52

target: T3, human FcγRIIIA-F158 α subunit extracellular domain-6His-GST fusion (human, UniProt P08637 17-208); experiment: ELISA, IgG:IgE hexamers on receptor-GST
T3 construct: also called FcγRIIIA-Phe158; not shown: glutathione S-transferase (GST)
T3 sequence (P08637 other isoform, or with tags, fused parts or gaps, form in doubt): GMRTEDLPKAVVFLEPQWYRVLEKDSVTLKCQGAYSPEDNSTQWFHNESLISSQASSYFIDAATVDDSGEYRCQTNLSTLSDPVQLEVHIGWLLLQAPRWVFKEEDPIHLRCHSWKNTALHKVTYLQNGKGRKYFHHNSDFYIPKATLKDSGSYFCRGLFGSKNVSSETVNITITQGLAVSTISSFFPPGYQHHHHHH

Binder	ratio to native IgG1
B1	0.88
B2	0.5
B3	0.02
B4	1.19
B32	1.26
B5	0.02
B33	0.94
B6	0.04
B7	0.94
B8	0.84
B9	0.28
B10	0.84
B11	0.72
B12	0.95
B13	0.99
B14	1.05
B15	1.28

Binder	ratio to native IgG1
B17	0.37
B18	0.07
B19	1.09
B20	0.72
B21	0.85
B22	0.36
B34	0.85
B23	0.84
B24	0.06
B25	0.82
B26	0.9
B27	1.05
B28	0.14
B29	1.16
B30	1.13
B31	0.56
